Data as given in publication PMC4132714, “Phospho-dependent and phospho-independent interactions of the helicase UPF1 with the NMD factors SMG5–SMG7 and SMG6” (Nucleic Acids Research, 2014).
Ends that are not written are not given here.

T1: SMG5–7 TPR complex (heterodimer of SMG5 TPR and SMG7 TPR) (human, UniProt Q9UPR3 1-803; Q92540 1-499, Δ408–632)
T1 construct: SMG5, human, residues 1–803 with the predicted insertion 408–632 removed (SMG5 TPR); SMG7, human, residues 1–499 (SMG7 TPR); Written SMG5-His and His-(TEV)-SMG7 in the methods; also called SMG5–SMG7; SMG5–7 TPR heterodimer; not shown: His, N-terminal, cleaved; copies: 1 + 1
T1 sequence (looked up) 1: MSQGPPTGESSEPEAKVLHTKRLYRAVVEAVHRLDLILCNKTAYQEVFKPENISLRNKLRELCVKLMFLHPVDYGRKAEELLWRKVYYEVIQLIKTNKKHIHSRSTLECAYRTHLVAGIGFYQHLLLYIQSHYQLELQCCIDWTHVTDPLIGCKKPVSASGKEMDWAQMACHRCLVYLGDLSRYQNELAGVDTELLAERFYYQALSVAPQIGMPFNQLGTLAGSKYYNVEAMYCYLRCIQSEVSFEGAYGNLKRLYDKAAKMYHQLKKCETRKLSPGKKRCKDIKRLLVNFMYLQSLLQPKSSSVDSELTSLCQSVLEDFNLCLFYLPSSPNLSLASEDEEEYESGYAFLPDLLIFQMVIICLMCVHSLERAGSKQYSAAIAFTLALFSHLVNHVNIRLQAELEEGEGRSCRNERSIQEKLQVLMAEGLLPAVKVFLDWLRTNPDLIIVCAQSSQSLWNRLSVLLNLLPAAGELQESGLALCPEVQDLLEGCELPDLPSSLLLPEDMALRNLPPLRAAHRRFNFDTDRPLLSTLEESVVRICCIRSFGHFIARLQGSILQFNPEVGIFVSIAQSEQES
T1 sequence (looked up) 2: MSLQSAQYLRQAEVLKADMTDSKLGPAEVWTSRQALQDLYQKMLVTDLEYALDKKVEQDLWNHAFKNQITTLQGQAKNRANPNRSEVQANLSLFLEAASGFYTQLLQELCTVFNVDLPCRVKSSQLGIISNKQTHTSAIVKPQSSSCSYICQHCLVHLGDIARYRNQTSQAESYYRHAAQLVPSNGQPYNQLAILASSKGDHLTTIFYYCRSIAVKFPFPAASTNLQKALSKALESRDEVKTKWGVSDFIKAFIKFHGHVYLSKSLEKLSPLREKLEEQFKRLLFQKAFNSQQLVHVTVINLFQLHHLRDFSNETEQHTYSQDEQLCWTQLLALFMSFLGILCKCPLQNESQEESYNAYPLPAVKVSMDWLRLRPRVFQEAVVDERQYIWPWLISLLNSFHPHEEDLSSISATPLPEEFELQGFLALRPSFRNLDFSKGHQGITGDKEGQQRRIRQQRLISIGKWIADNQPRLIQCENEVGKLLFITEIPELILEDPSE

B1: GST-UPF1fl, unphosphorylated (mock-treated with SMG1 KD or not treated) (natural protein, human, UniProt Q92900-2 1-1118, looked up)
chain: MSVEAYGPSSQTLTFLDTEEAELLGADTQGSEFEFTDFTLPSQTQTPPGGPGGPGGGGAGGPGGAGAGAAAGQLDAQVGPEGILQNGAVDDSVAKTSQLLAELNFEEDEEDTYYTKDLPIHACSYCGIHDPACVVYCNTSKKWFCNGRGNTSGSHIVNHLVRAKCKEVTLHKDGPLGETVLECYNCGCRNVFLLGFIPAKADSVVVLLCRQPCASQSSLKDINWDSSQWQPLIQDRCFLSWLVKIPSEQEQLRARQITAQQINKLEELWKENPSATLEDLEKPGVDEEPQHVLLRYEDAYQYQNIFGPLVKLEADYDKKLKESQTQDNITVRWDLGLNKKRIAYFTLPKTDSDMRLMQGDEICLRYKGDLAPLWKGIGHVIKVPDNYGDEIAIELRSSVGAPVEVTHNFQVDFVWKSTSFDRMQSALKTFAVDETSVSGYIYHKLLGHEVEDVIIKCQLPKRFTAQGLPDLNHSQVYAVKTVLQRPLSLIQGPPGTGKTVTSATIVYHLARQGNGPVLVCAPSNIAVDQLTEKIHQTGLKVVRLCAKSREAIDSPVSFLALHNQIRNMDSMPELQKLQQLKDETGELSSADEKRYRALKRTAERELLMNADVICCTCVGAGDPRLAKMQFRSILIDESTQATEPECMVPVVLGAKQLILVGDHCQLGPVVMCKKAAKAGLSQSLFERLVVLGIRPIRLQVQYRMHPALSAFPSNIFYEGSLQNGVTAADRVKKGFDFQWPQPDKPMFFYVTQGQEEIASSGTSYLNRTEAANVEKITTKLLKAGAKPDQIGIITPYEGQRSYLVQYMQFSGSLHTKLYQEVEIASVDAFQGREKDFIILSCVRANEHQGIGFLNDPRRLNVALTRARYGVIIVGNPKALSKQPLWNHLLNYYKEQKVLVEGPLNNLRESLMQFSKPRKLVNTINPGARFMTTAMYDAREAIIPGSVYDRSSQGRPSSMYFQTHDQIGMISAGPSHVAAMNIPIPFNLVMPPMPPPGYFGQANGPAAGRGTPKGKTGRGGRQKNRFGLPGPSQTNLPNSQASQDVASQPFSQGALTQGYISMSQPSQMSQPGLSQPELSQDSYLGDEFKSQIDVALSQDSTYQGERAYQHGGVTGLSQY
notes: UPF1, human; also called full-length GST-UPF1; unphosphorylated UPF1
B2: GST-UPF1fl phosphorylated in vitro by SMG1 wt (natural protein, human, UniProt Q92900-2 1-1118, looked up)
chain: B1 chain
modifications: phosphorylated by SMG1 at SQ and TQ motifs present exclusively in the N- and C-terminal tails; detected sites include Thr28, Ser1078, Ser1096 and Ser1116
notes: UPF1, human; also called phospho-UPF1; phospho-UPF1fl
B3: GST-UPF1CT2 (residues 1070–1118) phosphorylated in vitro by SMG1 wt (domain or fragment, human, UniProt Q92900-2 1070-1118, looked up)
chain: PGLSQPELSQDSYLGDEFKSQIDVALSQDSTYQGERAYQHGGVTGLSQY
modifications: not fully specified (N-terminus); also: phosphorylated in vitro by SMG1, sites not given here, GST fusion partner not in chain
notes: source: E. coli, purified, then phosphorylated in vitro with SMG1 wt
B4: GST-UPF1CT4 (residues 1086–1118) phosphorylated in vitro by SMG1 wt (domain or fragment, human, UniProt Q92900-2 1086-1118, looked up)
chain: {GST}-EFKSQIDVALSQDSTYQGERAYQHGGVTGLSQY
modifications: also: phosphorylated in vitro by SMG1 at SQ motifs, sites not given here
notes: as for B3
B5: GST-UPF1CT (residues 917–1118) phosphorylated in vitro by SMG1 wt (domain or fragment, human, UniProt Q92900-2 917-1118, looked up)
chain: RKLVNTINPGARFMTTAMYDAREAIIPGSVYDRSSQGRPSSMYFQTHDQIGMISAGPSHVAAMNIPIPFNLVMPPMPPPGYFGQANGPAAGRGTPKGKTGRGGRQKNRFGLPGPSQTNLPNSQASQDVASQPFSQGALTQGYISMSQPSQMSQPGLSQPELSQDSYLGDEFKSQIDVALSQDSTYQGERAYQHGGVTGLSQY
modifications: phosphorylated in vitro by SMG1 at SQ motifs; sites not stated for this construct
notes: also called C-terminal tail of UPF1; source: E. coli BL21 (DE3) STAR pRARE, purified, then phosphorylated in vitro with SMG1 wt
B6: GST-UPF1CT1 (residues 1052–1118) phosphorylated in vitro by SMG1 wt (domain or fragment, human, UniProt Q92900-2 1052-1118, looked up)
chain: {GST}-GALTQGYISMSQPSQMSQPGLSQPELSQDSYLGDEFKSQIDVALSQDSTYQGERAYQHGGVTGLSQY
modifications: also: phosphorylated in vitro by SMG1 at SQ motifs, sites not given here
notes: as for B3

Each binder was assayed against T2, SMG6fl (HA-Flag tagged, purified from HEK 293T cells) (human, UniProt Q86US8 1-1419) (assay: pull-down; GST pull-down as in Figure 1C with GST-UPF1fl as bait and several preys added together (SMG6fl, UPF2, UPF3, EJC; or SMG6fl and SMG5–7 TPR after treatment with SMG1 wt or KD); Coomassie). Conditions: both partners purified.
T2 construct: SMG6, human, full length (SMG6CT ends at residue 1419)
T2 sequence (Q86US8 whole entry): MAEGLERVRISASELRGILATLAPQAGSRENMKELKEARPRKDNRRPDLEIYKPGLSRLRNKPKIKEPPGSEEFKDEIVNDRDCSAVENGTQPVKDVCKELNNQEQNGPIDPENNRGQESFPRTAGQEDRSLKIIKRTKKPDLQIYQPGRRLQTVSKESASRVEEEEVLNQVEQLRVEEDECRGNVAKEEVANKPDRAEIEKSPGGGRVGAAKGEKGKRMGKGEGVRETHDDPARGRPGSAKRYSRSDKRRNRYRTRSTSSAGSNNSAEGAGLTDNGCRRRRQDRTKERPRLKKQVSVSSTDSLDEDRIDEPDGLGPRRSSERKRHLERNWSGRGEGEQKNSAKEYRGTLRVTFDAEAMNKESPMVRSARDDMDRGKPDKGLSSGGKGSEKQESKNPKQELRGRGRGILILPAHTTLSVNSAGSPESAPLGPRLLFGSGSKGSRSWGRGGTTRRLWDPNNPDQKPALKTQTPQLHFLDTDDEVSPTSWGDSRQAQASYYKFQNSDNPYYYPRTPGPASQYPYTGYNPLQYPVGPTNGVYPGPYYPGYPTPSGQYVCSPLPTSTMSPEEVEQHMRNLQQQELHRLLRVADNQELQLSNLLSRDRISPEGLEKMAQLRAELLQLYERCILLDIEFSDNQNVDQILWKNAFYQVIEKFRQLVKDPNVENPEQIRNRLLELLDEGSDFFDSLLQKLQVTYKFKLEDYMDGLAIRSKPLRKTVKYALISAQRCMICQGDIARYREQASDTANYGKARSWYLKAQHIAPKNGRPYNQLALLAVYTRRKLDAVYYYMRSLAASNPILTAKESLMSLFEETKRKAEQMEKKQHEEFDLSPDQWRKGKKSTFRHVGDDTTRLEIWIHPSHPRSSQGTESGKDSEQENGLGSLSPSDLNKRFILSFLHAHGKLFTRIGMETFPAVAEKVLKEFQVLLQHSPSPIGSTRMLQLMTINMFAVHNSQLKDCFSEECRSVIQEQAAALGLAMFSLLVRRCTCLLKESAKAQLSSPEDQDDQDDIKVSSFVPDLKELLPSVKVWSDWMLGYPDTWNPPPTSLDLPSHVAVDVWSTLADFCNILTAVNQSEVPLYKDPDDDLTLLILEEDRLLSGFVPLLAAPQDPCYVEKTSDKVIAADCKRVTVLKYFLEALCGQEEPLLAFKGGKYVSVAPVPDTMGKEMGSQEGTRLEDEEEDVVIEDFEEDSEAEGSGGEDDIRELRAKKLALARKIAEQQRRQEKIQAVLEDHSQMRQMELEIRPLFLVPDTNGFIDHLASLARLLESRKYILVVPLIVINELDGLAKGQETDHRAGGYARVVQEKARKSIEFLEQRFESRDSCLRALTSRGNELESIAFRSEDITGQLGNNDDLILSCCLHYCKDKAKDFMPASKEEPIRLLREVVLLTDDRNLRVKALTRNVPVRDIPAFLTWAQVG

| Binder | binding result |
| --- | --- |
| B1 | binds |
| B2 | binds |

The binders below were run against T1, SMG5–7 TPR complex (heterodimer of SMG5 …) (assay: pull-down; GST pull-down, one prey: ∼2 μg GST-tagged bait with equal amount of untagged prey in 20 mM HEPES pH 7.5, 125 mM NaCl, 2% glycerol, 2 mM DTT (45 μl), 45 min at room temperature; glutathione–Sepharose beads in 20 mM HEPES pH 7.5, 150 mM NaCl, 10% glycerol, 2 mM DTT, 0.1% NP-40, 1 h at 4°C; eluted with glutathione; SDS-PAGE, Coomassie; GST-UPF1 constructs pre-treated with SMG1 wt or SMG1 KD where indicated). Conditions: both partners purified.

| Binder | binding result |
| --- | --- |
| B3 | binds |
| B4 | binds |
| B5 | binds |
| B6 | binds |
